Measured values from patent US20230119290A1 (UNIVERSIT T ZU K LN, published 2023).

B1: monomeric wildtype VEGF^165 (moVEGF^165) (ligand, human, UniProt P15692-4 27-191, looked up)
chain: APMAEGGGQNHHEVVKFMDVYQRSYCHPIETLVDIFQEYPDEIEYIFKPSCVPLMRCGGCCNDEGLECVPTEESNITMQIMRIKPHQGQHIGEMSFLQHNKCECRPKKDRARQENPCGPCSERRKHLFVQDPQTCKCSCKNTDSRCKARQLELNERTCRCDKPRR
notes: mature; Expressed from a monomeric construct in HEK293T cells; not shown: N-terminal Strep tag from the expression vector
B2: monomeric PIGF (moPIGF) (ligand, UniProt P49763-2 19-149, looked up, not shown: small tags and cut ends)
chain: LPAVPPQQWALSAGNGSSEVEVVPFQEVWGRSYCRALERLVDVVSEYPSEVEHMFSPSCVSLLRCTGCCGDENLHCVPVETANVTMQLLKIRSGDRPSYVELTFSQHVRCECRPLREKMKPERCGDAVPRR

How the values were obtained:
[1] = target: sFlt-1 (soluble splice variant of VEGF receptor 1) in human serum (human) (UniProt P17948); test: adsorption of sFlt-1 from human serum on ligand column (agarose), sFlt-1 ELISA of flow through
sFlt-1 (soluble splice variant of VEGF receptor 1) in human serum (human), sequence (P17948 other isoform, or with tags, fused parts or gaps mutant): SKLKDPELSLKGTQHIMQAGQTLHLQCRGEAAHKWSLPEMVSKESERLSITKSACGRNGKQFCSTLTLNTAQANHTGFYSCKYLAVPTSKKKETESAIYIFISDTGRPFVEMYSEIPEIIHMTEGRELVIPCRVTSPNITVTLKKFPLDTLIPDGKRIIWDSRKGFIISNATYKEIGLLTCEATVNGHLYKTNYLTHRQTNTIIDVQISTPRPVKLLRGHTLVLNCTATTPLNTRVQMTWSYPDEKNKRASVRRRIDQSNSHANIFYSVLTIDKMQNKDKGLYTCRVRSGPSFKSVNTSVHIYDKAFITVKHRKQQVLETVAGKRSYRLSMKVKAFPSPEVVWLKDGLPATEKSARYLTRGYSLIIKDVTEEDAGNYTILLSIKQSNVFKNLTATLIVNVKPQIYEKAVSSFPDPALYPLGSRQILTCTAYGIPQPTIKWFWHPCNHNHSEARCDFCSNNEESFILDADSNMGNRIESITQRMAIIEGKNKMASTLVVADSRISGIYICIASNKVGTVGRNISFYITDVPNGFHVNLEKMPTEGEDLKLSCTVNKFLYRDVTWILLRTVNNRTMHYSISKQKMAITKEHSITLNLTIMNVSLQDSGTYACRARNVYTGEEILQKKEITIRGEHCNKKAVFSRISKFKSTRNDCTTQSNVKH

[2] = target: sFlt-1 (soluble splice variant of VEGF receptor 1) in human serum (human) (UniProt P17948); test: single run of serum of 10 preeclampsia patients over scVEGF^165 column, sFlt-1 ELISA before and after
[3] = target: sFlt-1 (soluble splice variant of VEGF receptor 1) in human serum (human) (UniProt P17948); test: cell-based or functional assay
[4] = target: sFlt-1 (soluble splice variant of VEGF receptor 1) in human serum (human) (UniProt P17948); test: adsorption of sFlt-1 from preeclampsia patient serum on agarose column, sFlt-1 ELISA before and after
[5] = target: T1, VEGF-Trap (chimeric protein of VEGFR-1 domain 2 and VEGFR-2 domain 3 fused to Fc) (UniProt P17948 129-230; P35968 225-327); test: solid phase ELISA, VEGF/PIGF variant immobilised, VEGF-trap titrated 0.1 to 750 nM, Kd from saturation curve
T1 construct: also called VEGFR1/R2 trap; not shown: Fc segment
T1 sequence (P17948 other isoform, or with tags, fused parts or gaps mutant): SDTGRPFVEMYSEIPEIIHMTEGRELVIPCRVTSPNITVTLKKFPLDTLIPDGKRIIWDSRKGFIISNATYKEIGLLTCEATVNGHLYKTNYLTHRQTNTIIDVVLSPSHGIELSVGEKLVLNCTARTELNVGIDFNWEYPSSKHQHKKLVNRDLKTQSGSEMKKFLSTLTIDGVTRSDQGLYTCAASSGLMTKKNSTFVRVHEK
Method: ELISA style binding assays were performed as described previously (Agarwal et al., 2012). In brief, 10 µg/ml of recombinant VEGF, PIGF and their mutant variants were individually immobilized together with bovine serum albumin (BSA) on 96 well plate (Transparente Immuno Standardmodule, Thermo scientific, Denmark), while matrix loaded only with BSA served as a control. A binding saturation curve was generated by applying increasing concentrations of VEGFR1/R2 trap ranging from 0,1 to 750 nM, followed by detection of the ligand-receptor complex using a horseradish peroxidase (HRP)-conjugated antibody against the mouse Fc domain of VEGFR1/R2 trap. Luminescence was quantified at optical density (OD) 450 nm using a by spectrophotometer (Thermo ScientificMultiskan GO, Finland).

| reduction of sFlt-1 in a single run [1] [%] | sFlt-1 reduction (mean of 10 patient samples) [2] [%] | sFlt-1 reduction (median of 10 patient samples) [2] [%] | PIGF release (free PIGF in serum after against before the column) [3] [fold] | PIGF release (free PIGF in serum after against before the column), median [3] [fold] | VEGF release (free VEGF in serum after against before the column) [3] [fold] | VEGF release (free VEGF in serum after against before the column), median [3] [fold] | reduction of sFlt-1 in a single run [4] [%] | fold higher affinity compared to moPIGF [5] [fold] | reduction of sFlt-1 in a single passage [4] [%] | Molecule |
| --- | --- | --- | --- | --- | --- | --- | --- | --- | --- | --- |
| 86.2 | 88 | 92.2 | 20 | 14.6 | 9.07 | 8.74 | 89.9 |  |  | single chain VEGF^165 dimer (scVEGF^165) (from UniProt P49151 27-190) (ligand) |
|  |  |  |  |  |  |  |  | 2.6 | 77.2 | B1 |
|  |  |  |  |  |  |  |  |  | 46.2 | B2 |
